Results: publication PMC4674489

Target: GST-PTN(60-110) fusion protein (human)
Assay: pull-down

Chain of GST-PTN(60-110) fusion protein (human) (P21246 60-110): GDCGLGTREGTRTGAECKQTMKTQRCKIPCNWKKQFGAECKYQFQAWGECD

With “Neuropilin-1 (NRP-1), endogenous (from UniProt O14786 22-923) (receptor)” the NRP-1 pulled down, percent of that with GST-PTN(1-136) was 45%.
